This is an account of results in ChEMBL document CHEMBL3596158, “Exploring the substrate promiscuity of an antibiotic inactivating enzyme” (Medchemcomm, 2014).

Data set [1] deals with T1, Microcin C7 self-immunity protein MccF (Escherichia coli) (UniProt Q47511).
T1 sequence (whole entry): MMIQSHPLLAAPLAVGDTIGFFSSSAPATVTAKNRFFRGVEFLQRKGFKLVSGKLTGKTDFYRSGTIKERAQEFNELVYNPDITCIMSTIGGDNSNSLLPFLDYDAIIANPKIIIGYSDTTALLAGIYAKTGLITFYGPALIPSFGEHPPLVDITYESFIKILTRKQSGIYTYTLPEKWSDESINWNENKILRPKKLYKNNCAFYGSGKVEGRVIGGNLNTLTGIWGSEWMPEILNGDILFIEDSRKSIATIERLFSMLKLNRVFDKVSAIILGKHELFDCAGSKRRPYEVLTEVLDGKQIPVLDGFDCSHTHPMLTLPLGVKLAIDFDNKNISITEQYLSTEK
Description: Ratio of compound Kcat/Km to ESA Kcat/Km for wild type Escherichia coli MccF expressed in Escherichia coli Rosetta2 (DE3).

Substrate in data set [2]: Nc1ncnc2c1ncn2[C@@H]1O[C@H](COS(=O)(=O)NC(=O)[C@@H](N)CCC(=O)O)[C@@H](O)[C@H]1O
Description: (§1) Substrate activity at wild type Escherichia coli MccF expressed in Escherichia coli Rosetta2 (DE3) by bovine glutamate dehydrogenase-coupled continuous assay.

Substrate in data set [3]: N[C@@H](CCC(=O)O)C(=O)NS(=O)(=O)OC[C@H]1O[C@@H](n2cnc3c(=O)[nH]cnc32)[C@H](O)[C@@H]1O
The description is as §1.

Substrate in data set [4]: Nc1nc2c(ncn2[C@@H]2O[C@H](COS(=O)(=O)NC(=O)[C@@H](N)CCC(=O)O)[C@@H](O)[C@H]2O)c(=O)[nH]1
The description is as §1.

In the case of `Nc1nc2c(ncn2[C@@H]2O[C@H](COS(=O)(=O)NC(=O)[C@@H](N)CCC(=O)O)[C@@H](O)[C@H]2O)c(=O)[nH]1`, in data set [1], the Ratio turned out to be 1.5.

For the molecule `N[C@@H](CCC(=O)O)C(=O)NS(=O)(=O)OC[C@H]1O[C@@H](n2cnc3c(=O)[nH]cnc32)[C@H](O)[C@@H]1O`, the Ratio in data set [1] came to 0.6.

B1: Microcin C7 self-immunity protein MccF (Escherichia coli), Q47511 (protein)
chain: T1 sequence (whole entry)
For the molecule B1, the Km was 51.6 µM in data set [2], 90.9 µM in data set [3] and 33.4 µM in data set [4]. Besides, the values for the kcat in data set [2], in data set [3] and in data set [4] were 0.583 s⁻¹, 0.635 s⁻¹ and 0.582 s⁻¹, respectively.

Usually Km stands for the concentration of substrate that gives half-maximal velocity. A word on the kcat: it is the maximal rate divided by the concentration of active sites.
